Legend:
[1] = biological target: T1, human FZD6 expressed on transfected HEK293 cells (human, UniProt O60353 19-706); assay: flow cytometry, HEK293 cells transiently co-transfected with FZD expression vector and GFP
T1 sequence: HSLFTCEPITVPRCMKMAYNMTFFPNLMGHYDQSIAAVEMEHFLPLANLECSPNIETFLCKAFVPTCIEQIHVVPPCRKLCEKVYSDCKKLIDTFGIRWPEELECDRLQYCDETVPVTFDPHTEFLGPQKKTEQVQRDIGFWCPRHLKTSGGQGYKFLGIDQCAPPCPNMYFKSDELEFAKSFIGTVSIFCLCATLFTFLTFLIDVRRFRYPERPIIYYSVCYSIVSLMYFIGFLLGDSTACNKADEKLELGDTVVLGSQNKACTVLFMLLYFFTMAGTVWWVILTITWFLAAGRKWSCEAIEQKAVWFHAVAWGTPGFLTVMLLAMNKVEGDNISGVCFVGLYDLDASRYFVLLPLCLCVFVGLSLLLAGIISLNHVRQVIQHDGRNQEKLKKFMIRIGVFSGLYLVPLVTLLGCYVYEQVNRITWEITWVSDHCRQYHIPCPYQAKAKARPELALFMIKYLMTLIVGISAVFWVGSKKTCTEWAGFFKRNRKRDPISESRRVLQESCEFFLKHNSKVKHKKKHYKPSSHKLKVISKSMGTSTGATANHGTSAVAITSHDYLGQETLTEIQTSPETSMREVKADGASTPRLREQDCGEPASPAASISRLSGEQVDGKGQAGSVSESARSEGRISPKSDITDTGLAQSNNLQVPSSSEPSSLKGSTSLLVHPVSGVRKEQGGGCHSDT
Description: (§1) To measure antibody binding to FZD by flow cytometry HEK293 cells were co-transfected with FZD expression vectors and the transfection marker GFP. Twenty-four to forty-eight hours post-transfection, cells were collected in suspension and incubated on ice with anti-FZD antibodies (10 μg/ml unless otherwise indicated) or control IgG to detect background antibody binding. The cells were washed and primary antibodies detected with Fc domain-specific secondary antibodies conjugated to a fluorescent chromophore (e.g. phycoerythrin conjugated anti-human IgG). Labeled cells were then analyzed by flow cytometry to identify anti-FZD antibodies that specifically recognize cell surface expression of FZD protein. Monoclonal antibodies 18R5 and 18R8 recognized FZD on transfected cells. As shown in FIG. 1 and FIG. 2, both 18R8 and 18R5 bind to multiple FZD including FZD1, FZD2, FZD5, FZD7, and FZD8. To examine the relative ability of 18R8 and 18R5 to bind to each FZD protein, titration analysis was conducted wherein the amount of antibody in the binding reaction was varied (FIG. 2).

[2] = biological target: T2, human FZD9 expressed on transfected HEK293 cells (human, UniProt O00144 23-591); assay: as above
T2 sequence: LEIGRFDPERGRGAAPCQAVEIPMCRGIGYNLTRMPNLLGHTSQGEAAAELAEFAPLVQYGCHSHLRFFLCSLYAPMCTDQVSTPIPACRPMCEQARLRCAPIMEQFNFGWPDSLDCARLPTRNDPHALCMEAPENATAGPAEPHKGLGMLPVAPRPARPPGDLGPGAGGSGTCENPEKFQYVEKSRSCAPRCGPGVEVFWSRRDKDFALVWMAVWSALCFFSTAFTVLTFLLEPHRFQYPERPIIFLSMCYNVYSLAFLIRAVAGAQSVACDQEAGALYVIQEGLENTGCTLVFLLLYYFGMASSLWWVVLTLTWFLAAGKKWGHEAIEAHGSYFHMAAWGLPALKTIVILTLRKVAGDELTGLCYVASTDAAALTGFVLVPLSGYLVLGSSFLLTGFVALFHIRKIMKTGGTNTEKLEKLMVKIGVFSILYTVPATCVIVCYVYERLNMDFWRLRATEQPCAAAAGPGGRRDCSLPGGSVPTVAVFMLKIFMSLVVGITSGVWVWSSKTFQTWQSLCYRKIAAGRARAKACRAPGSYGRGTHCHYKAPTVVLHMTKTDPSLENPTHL
Description: as §1

FZD5-Fc = biological target: T3, FZD5-Fc (Homo sapiens (Human), UniProt Q13467 27-233, limits assumed); assay: SPR, Biacore 2000; Fzd Fc immobilized on CM5 chip, IgG 100 to 0.78 nM in solution
T3 construct: also called recombinant FZD5 Fc protein; not shown: Fc part, not described
T3 sequence: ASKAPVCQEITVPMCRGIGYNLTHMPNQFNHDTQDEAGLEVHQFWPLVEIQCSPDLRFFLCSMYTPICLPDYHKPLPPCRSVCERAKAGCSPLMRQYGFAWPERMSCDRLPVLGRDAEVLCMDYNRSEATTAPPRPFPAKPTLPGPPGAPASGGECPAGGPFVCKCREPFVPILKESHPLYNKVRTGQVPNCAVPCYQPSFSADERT
Description: (§2) The KDs of 18R8 and 18R5 antibodies were determined using the Biacore 2000 system from Biacore Lifescience (GE Healthcare). Specifically, purified anti-Fzd7 antibodies were serially diluted in 2-fold increments from 100 to 0.78 nM in HBS-P (0.01 M HEPES pH 7.4, 0.15 M NaCl, 0.005% v/v Surfactant P20). Each dilution was tested against recombinant Fzd Fc proteins immobilized onto a CM5 Biacore chip. The association and dissociation rates were measured and KD values determined using the Biaevaluation software program (Table 5, below).

[3] = biological target: T4, recombinant FZD7 Fc protein (Biacore) (Homo sapiens (Human), UniProt O75084 33-255, limits assumed); assay: as above
T4 construct: also called Fzd Fc; not shown: Fc part, not described
Description: as §2

[4] = biological target: T5, recombinant FZD2 Fc protein (Biacore) (Homo sapiens (Human), UniProt Q14332 24-250, limits assumed); assay: as above
T5 construct: also called Fzd Fc; not shown: Fc part, not described
Description: as §2

[5] = biological target: T6, recombinant FZD1 Fc protein (Biacore) (Homo sapiens (Human), UniProt Q9UP38 70-321, limits assumed); assay: as above
T6 construct: also called Fzd Fc; not shown: Fc part, not described
Description: as §2

T5 sequence (Q14332 24-250 limits assumed): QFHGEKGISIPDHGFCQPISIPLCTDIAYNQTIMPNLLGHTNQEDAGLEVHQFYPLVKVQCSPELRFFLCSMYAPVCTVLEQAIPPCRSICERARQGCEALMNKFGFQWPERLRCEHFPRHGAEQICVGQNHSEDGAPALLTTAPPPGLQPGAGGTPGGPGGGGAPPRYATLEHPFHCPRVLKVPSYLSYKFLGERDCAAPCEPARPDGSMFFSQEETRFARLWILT
T6 sequence (Q9UP38 70-321 limits assumed): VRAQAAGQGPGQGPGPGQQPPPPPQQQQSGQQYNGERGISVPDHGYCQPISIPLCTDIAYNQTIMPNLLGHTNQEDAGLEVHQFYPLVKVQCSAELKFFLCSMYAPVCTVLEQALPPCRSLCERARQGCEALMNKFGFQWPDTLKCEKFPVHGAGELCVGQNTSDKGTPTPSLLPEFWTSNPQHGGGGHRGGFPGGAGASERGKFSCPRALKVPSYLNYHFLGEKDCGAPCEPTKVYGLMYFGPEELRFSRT

B1: 18R8 IgG antibody (human IgG2, lambda) (antibody, V domains shown)
VH: EVQLVESGGGLVQPGGSLRLSCAASGFTFSHYTLSWVRQAPGKGLEWVSVISGDGSYTYYADSVKGRFTISSDNSKNTLYLQMNSLRAEDTAVYYCARNFIKYVFANWGQGTLVTVSS
VL: DIELTQPPSVSVAPGQTARISCSGDKLGKKYASWYQQKPGQAPVLVIYEKDNRPSGIPERFSGSNSGNTATLTISGTQAEDEADYYCSSFAGNSLEVFGGGTKLTVLG
notes: Expressed in CHO cells, protein A purified; also called 18R8 IgG2 antibody; anti-FZD antibody 18R8
binding result [1]: no binding (tested: 10 ug/ml)
binding result [2]: no binding (tested: 10 ug/ml)
Kd (FZD5-Fc): 4.2 nM
Kd [3]: 5.2 nM
Kd [4]: 6.2 nM
Kd [5]: 15.6 nM

Source: patent publication US20130295106A1 (ONCOMED PHARMACEUTICALS, published 2013)
